Experimental data as given in patent publication US20140057284A1, “PHOTOLUMINESCENT MOLECULAR COMPLEX AND METHOD FOR DETERMINING OF THE CONCENTRATION OF SAID MOLECULAR COMPLEX” (priority 2011, published 2014).

Key:
[1] = tested on: AMPK; assay: PK selectivity profiling, residual kinase activity; assay type: biochemical; settings: 1 μM ARC-669, ATP close to Km
[2] = target: catalytic subunit of cAMP-dependent protein kinase (PKAc) (Homo sapiens, UniProt P17612); assay: Binding affinity to PKAc; settings: towards PKAc
[3] = target: MNK2 (Homo sapiens, UniProt Q9HBH9); assay: biochemical; settings: read-out: Percentages of residual activities of the kinase reaction
MNK2, sequence (Q9HBH9 whole entry, species assumed): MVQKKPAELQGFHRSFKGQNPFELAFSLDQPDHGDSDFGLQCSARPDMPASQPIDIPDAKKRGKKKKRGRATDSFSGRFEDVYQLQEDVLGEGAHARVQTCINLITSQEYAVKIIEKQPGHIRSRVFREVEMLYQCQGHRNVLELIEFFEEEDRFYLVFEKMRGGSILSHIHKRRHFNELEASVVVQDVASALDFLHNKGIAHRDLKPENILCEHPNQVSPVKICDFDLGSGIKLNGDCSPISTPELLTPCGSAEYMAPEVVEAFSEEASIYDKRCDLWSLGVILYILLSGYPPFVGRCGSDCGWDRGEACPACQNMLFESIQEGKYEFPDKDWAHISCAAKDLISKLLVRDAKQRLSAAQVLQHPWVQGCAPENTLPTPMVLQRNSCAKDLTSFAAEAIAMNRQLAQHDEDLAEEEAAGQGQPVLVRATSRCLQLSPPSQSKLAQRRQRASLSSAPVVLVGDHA
Protocol: (§1) Selectivity testing (Table 2) was performed on the commercial basis at the Division of Signal Transduction Therapy, University of Dundee. ATP concentrations that were used in testing were close to the Km value of the kinase.

[4] = target: PIM2 (Homo sapiens, UniProt Q9P1W9); assay: biochemical; settings: read-out: Percentages of residual activities of the kinase reaction
Protocol: as §1

[5] = target: BRSK1 (Homo sapiens, UniProt Q8TDC3); assay: biochemical; settings: read-out: Percentages of residual activities of the kinase reaction
Protocol: as §1

[6] = target: VEG-FR (Homo sapiens, UniProt P17948); assay: biochemical; settings: read-out: Percentages of residual activities of the kinase reaction
Protocol: as §1

[7] = target: PRAK (Homo sapiens, UniProt Q8IW41); assay: biochemical; settings: read-out: Percentages of residual activities of the kinase reaction
PRAK, sequence (Q8IW41 whole entry, species assumed): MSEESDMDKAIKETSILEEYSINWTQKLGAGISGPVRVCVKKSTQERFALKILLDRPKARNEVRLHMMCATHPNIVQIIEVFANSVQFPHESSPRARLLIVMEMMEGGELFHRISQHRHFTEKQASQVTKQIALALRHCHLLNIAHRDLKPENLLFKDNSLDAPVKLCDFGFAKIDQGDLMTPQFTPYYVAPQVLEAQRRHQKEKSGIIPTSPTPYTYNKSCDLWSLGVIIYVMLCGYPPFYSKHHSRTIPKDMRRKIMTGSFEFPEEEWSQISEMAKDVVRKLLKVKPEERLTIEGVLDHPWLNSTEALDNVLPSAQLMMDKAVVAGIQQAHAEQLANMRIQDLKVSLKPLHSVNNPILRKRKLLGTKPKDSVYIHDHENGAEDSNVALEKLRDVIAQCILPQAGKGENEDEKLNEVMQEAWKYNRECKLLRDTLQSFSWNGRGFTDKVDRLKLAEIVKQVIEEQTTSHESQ
Protocol: as §1

[8] = target: CAMKKb (Homo sapiens, UniProt Q96RR4); assay: biochemical; settings: read-out: Percentages of residual activities of the kinase reaction
Protocol: as §1

[9] = target: TTK (Homo sapiens, UniProt P33981); assay: biochemical; settings: read-out: Percentages of residual activities of the kinase reaction
Protocol: as §1

[10] = target: SGK1 (Homo sapiens, UniProt O00141); assay: biochemical; settings: read-out: Percentages of residual activities of the kinase reaction
Protocol: as §1

[11] = target: GCK (Homo sapiens, UniProt Q12851); assay: biochemical; settings: read-out: Percentages of residual activities of the kinase reaction
GCK, sequence (Q12851 whole entry): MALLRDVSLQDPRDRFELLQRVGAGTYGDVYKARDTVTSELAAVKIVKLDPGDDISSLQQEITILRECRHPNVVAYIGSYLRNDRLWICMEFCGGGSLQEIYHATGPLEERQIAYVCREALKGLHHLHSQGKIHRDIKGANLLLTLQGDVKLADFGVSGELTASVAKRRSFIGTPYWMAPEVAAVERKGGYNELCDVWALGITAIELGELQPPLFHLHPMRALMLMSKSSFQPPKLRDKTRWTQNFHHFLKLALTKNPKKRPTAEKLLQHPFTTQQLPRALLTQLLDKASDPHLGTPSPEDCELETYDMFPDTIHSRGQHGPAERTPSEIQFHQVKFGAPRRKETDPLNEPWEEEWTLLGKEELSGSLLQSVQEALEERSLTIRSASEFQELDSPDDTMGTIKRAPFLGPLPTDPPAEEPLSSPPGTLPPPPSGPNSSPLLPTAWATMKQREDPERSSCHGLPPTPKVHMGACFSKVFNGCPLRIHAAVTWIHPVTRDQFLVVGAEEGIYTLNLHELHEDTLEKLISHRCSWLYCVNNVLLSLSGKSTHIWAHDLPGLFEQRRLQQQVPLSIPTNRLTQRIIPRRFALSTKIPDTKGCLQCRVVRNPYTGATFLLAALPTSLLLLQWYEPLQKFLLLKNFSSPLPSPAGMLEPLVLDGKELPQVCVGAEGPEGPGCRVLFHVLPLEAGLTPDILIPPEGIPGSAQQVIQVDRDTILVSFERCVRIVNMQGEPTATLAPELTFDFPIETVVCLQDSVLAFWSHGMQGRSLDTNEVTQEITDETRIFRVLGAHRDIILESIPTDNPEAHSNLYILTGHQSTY
Protocol: as §1

[12] = target: TIE2 (Homo sapiens, UniProt Q02763); assay: biochemical; settings: read-out: Percentages of residual activities of the kinase reaction
Protocol: as §1

[13] = target: DYRK3 (Homo sapiens, UniProt O43781); assay: biochemical; settings: read-out: Percentages of residual activities of the kinase reaction
Protocol: as §1

[14] = target: PIM1 (Homo sapiens, UniProt P11309); assay: biochemical; settings: read-out: Percentages of residual activities of the kinase reaction
PIM1, sequence (P11309 whole entry, species assumed): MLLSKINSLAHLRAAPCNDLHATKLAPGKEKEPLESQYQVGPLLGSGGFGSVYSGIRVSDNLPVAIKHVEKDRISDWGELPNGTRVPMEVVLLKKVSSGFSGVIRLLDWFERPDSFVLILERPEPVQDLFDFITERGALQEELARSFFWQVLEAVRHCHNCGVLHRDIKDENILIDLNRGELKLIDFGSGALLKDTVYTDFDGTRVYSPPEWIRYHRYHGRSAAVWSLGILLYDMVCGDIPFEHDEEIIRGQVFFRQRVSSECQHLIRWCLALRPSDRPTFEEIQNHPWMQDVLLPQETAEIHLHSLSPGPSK
Protocol: as §1

[15] = target: TAK1 (Homo sapiens, UniProt O43318); assay: biochemical; settings: read-out: Percentages of residual activities of the kinase reaction
TAK1, sequence (O43318 1-303 limits assumed): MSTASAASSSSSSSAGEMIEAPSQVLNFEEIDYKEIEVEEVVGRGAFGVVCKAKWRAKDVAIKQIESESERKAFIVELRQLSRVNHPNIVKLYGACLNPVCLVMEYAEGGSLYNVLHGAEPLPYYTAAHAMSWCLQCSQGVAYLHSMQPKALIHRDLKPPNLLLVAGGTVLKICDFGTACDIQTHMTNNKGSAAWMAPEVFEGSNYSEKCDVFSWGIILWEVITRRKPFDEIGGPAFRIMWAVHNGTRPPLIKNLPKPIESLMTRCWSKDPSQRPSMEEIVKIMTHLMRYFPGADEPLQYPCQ
TAK1, sequence (Q15750 437-504 partner limits assumed): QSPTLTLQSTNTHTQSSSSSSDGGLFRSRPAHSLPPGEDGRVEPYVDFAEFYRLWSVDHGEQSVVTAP
Protocol: as §1

[16] = target: PKCz (Homo sapiens, UniProt Q05513); assay: biochemical; settings: read-out: Percentages of residual activities of the kinase reaction
PKCz, sequence (Q05513 whole entry): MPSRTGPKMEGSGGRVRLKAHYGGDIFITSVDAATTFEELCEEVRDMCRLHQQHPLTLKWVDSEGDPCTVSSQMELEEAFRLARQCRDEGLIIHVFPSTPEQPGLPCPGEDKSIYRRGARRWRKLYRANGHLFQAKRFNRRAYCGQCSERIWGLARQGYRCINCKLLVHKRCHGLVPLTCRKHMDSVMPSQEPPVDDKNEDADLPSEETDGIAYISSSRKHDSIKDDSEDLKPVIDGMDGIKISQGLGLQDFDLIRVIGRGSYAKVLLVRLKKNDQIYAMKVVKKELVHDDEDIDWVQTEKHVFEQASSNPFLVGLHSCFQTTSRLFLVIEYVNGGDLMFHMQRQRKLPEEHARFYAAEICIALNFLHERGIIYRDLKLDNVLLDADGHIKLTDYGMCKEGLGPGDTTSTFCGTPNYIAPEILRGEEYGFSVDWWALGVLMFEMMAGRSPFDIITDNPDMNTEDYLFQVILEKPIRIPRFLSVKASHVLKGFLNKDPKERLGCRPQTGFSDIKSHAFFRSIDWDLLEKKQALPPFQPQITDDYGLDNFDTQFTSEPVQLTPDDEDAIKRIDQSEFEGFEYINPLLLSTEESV
Protocol: as §1

[17] = target: ROCK 2 (Homo sapiens, UniProt O75116); assay: biochemical; settings: read-out: Percentages of residual activities of the kinase reaction
Protocol: as §1

[18] = target: MKK2 (Homo sapiens, UniProt P36507); assay: biochemical; settings: read-out: Percentages of residual activities of the kinase reaction
Protocol: as §1

[19] = target: IGF-1R (Homo sapiens, UniProt P08069); assay: biochemical; settings: read-out: Percentages of residual activities of the kinase reaction
Protocol: as §1

[20] = target: Lck (Homo sapiens, UniProt P06239); assay: biochemical; settings: read-out: Percentages of residual activities of the kinase reaction
Lck, sequence (P06239 whole entry, species assumed): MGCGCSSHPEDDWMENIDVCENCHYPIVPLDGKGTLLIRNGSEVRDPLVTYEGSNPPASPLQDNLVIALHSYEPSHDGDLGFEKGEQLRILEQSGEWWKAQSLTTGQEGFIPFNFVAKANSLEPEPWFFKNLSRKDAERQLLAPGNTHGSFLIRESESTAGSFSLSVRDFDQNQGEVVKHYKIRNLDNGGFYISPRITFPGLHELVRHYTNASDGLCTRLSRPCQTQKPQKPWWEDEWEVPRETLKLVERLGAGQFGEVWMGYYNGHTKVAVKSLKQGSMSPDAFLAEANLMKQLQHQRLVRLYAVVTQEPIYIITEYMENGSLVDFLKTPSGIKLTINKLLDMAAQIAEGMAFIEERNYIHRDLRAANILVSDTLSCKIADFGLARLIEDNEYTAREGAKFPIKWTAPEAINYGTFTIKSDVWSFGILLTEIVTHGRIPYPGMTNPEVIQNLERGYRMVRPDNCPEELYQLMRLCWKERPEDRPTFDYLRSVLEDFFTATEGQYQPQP
Protocol: as §1

[21] = target: MARK4 (Homo sapiens, UniProt Q96L34); assay: biochemical; settings: read-out: Percentages of residual activities of the kinase reaction
Protocol: as §1

[22] = target: MAPKAP-K2 (Homo sapiens, UniProt P49137); assay: biochemical; settings: read-out: Percentages of residual activities of the kinase reaction
Protocol: as §1

[23] = target: MST2 (Homo sapiens, UniProt Q13188); assay: biochemical; settings: read-out: Percentages of residual activities of the kinase reaction
Protocol: as §1

[24] = target: TBK1 (Homo sapiens, UniProt Q9UHD2); assay: biochemical; settings: read-out: Percentages of residual activities of the kinase reaction
Protocol: as §1

[25] = target: MKK6 (Homo sapiens, UniProt P52564); assay: biochemical; settings: read-out: Percentages of residual activities of the kinase reaction
Protocol: as §1

[26] = target: FGF-R1 (Homo sapiens, UniProt P11362); assay: biochemical; settings: read-out: Percentages of residual activities of the kinase reaction
Protocol: as §1

[27] = target: MAPKAP-K3 (Homo sapiens, UniProt Q16644); assay: biochemical; settings: read-out: Percentages of residual activities of the kinase reaction
MAPKAP-K3, sequence (Q16644 whole entry, species assumed): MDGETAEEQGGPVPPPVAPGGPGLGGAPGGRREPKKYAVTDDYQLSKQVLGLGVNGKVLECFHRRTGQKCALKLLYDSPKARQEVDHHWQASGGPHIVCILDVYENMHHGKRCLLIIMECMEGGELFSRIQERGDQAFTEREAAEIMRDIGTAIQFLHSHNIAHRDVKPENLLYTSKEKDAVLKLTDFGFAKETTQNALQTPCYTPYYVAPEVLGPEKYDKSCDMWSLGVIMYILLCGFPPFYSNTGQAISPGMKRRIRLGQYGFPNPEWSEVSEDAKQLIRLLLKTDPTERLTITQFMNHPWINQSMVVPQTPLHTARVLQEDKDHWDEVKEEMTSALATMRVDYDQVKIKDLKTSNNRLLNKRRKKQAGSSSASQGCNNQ
Protocol: as §1

[28] = target: p38g MAPK (Homo sapiens, UniProt P53778); assay: biochemical; settings: read-out: Percentages of residual activities of the kinase reaction
Protocol: as §1

[29] = target: SRPK1 (Homo sapiens, UniProt Q96SB4); assay: biochemical; settings: read-out: Percentages of residual activities of the kinase reaction
Protocol: as §1

[30] = target: DYRK1A (Homo sapiens, UniProt Q13627); assay: biochemical; settings: read-out: Percentages of residual activities of the kinase reaction
Protocol: as §1

[31] = target: PRK2 (Homo sapiens, UniProt Q16513); assay: biochemical; settings: read-out: Percentages of residual activities of the kinase reaction
PRK2, sequence (Q16513 whole entry, species assumed): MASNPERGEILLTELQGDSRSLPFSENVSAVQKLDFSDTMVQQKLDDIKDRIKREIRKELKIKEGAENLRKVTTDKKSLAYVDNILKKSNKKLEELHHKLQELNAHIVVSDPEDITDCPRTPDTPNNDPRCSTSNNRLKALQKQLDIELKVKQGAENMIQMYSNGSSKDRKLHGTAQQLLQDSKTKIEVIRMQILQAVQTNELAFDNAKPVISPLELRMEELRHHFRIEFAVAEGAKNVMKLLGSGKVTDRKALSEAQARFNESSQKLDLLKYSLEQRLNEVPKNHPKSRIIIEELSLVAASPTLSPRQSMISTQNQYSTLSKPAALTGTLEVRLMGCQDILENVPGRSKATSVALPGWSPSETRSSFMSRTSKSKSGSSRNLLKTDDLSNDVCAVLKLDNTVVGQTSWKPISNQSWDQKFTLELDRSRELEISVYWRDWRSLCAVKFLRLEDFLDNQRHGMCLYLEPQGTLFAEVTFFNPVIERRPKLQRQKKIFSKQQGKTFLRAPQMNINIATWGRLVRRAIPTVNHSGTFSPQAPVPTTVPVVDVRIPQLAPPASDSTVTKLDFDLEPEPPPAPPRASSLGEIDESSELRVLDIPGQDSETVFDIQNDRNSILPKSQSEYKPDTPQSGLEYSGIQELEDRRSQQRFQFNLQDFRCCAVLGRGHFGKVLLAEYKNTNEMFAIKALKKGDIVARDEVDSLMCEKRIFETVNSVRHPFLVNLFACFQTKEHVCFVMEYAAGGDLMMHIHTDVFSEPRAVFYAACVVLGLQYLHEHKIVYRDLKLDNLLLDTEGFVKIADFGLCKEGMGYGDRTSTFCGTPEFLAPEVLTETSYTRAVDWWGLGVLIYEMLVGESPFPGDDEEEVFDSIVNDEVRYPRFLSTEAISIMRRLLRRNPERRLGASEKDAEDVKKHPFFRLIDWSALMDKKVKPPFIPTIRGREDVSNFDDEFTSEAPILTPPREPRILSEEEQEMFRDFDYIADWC
Protocol: as §1

[32] = target: CLK2 (Homo sapiens, UniProt P49760); assay: biochemical; settings: read-out: Percentages of residual activities of the kinase reaction
Protocol: as §1

[33] = target: ERK8 (Homo sapiens, UniProt Q8TD08); assay: biochemical; settings: read-out: Percentages of residual activities of the kinase reaction
Protocol: as §1

[34] = target: JNK2 (Homo sapiens, UniProt P45984); assay: biochemical; settings: read-out: Percentages of residual activities of the kinase reaction
Protocol: as §1

[35] = tested on: CK2; assay: PK selectivity profiling, residual kinase activity; assay type: biochemical; settings: 1 μM ARC-669, ATP close to Km
[36] = target: T1, SmMLCK (Homo sapiens, UniProt Q15746); assay: PK selectivity profiling, residual kinase activity; assay type: biochemical; settings: 1 μM ARC-669, ATP close to Km, read-out: Percentages of residual activities of the kinase reaction
T1 construct: Division of Signal Transduction Therapy, University of Dundee (contract testing)

## CN(C)c1ccc2c(c1)Oc1cc(N(C)C)ccc1C21OC(=O)c2cc(C(=O)NCCCC[C@@H](NC(=O)[C@@H](CCCNC(=N)N)NC(=O)[C@@H](CCCNC(=N)N)NC(=O)[C@@H](CCCNC(=N)N)NC(=O)[C@@H](CCCNC(=N)N)NC(=O)[C@@H](CCCNC(=N)N)NC(=O)[C@@H](CCCNC(=N)N)NC(=O)CCCCCNC(=O)[C@@H](CCCNC(=N)N)NC(=O)CCCCCNC(=O)c3ccc(-c4ccnc(N)n4)s3)C(N)=O)ccc21 [ARC-669]
[1]
  Percentages of residual activities of the kinase reaction: 36%
[2]
  Kd: 0.1 nM
[3]
  remaining activity at 1 µM: 76%
[4]
  remaining activity at 1 µM: 15%
[5]
  remaining activity at 1 µM: 44%
[6]
  remaining activity at 1 µM: 25%
[7]
  remaining activity at 1 µM: 63%
[8]
  remaining activity at 1 µM: 41%
[9]
  remaining activity at 1 µM: 66%
[10]
  remaining activity at 1 µM: 8%
[11]
  remaining activity at 1 µM: 10%
[12]
  remaining activity at 1 µM: 86%
[13]
  remaining activity at 1 µM: 18%
[14]
  remaining activity at 1 µM: 3%
[15]
  remaining activity at 1 µM: 13%
[16]
  remaining activity at 1 µM: 10%
[17]
  remaining activity at 1 µM: 10%
[18]
  remaining activity at 1 µM: 68%
[19]
  remaining activity at 1 µM: 38%
[20]
  remaining activity at 1 µM: 11%
[21]
  remaining activity at 1 µM: 86%
[22]
  remaining activity at 1 µM: 13%
[23]
  remaining activity at 1 µM: 94%
[24]
  remaining activity at 1 µM: 27%
[25]
  remaining activity at 1 µM: 107%
[26]
  remaining activity at 1 µM: 54%
[27]
  remaining activity at 1 µM: 31%
[28]
  remaining activity at 1 µM: 104%
[29]
  remaining activity at 1 µM: 66%
[30]
  remaining activity at 1 µM: 27%
[31]
  remaining activity at 1 µM: 4%
[32]
  remaining activity at 1 µM: 1%
[33]
  remaining activity at 1 µM: 23%
[34]
  remaining activity at 1 µM: 85%
[35]
  Percentages of residual activities of the kinase reaction: 7%
[36]
  remaining activity at 1 µM: 46%
